From the supplement of paper PMC7877785
± gives the uncertainty stated by the source.

Test: self-splicing fitness, log relative to wild type (ln ratio); higher = more splicing; Tetrahymena group I intron in knt gene, E. coli kanamycin selection, DiMSum; sequences stand for … in CUCUCU…GGAGGGAAAAGUUAUCAGGCAUGCACCUGGUAGCUAGUCUUUAAACCAAUAGAUUGCAUCGGUUUAAAAGGCAAGACCGUCAAAUUGCGGGAAAGGGGUCAACAGCCGUUCAGUACCAAGUCUCAGGGGAAACUUUGAGAUGGCCUUGCAAAGGGUAUGGUAAUAAGCUGACGGACAUGGUCCUAACCACGCAGCCAAGUCCUAAGUCAACAGAUCUUCUGUUGAUAUGGAUGCAGUUCACAGACUAAAUGUCGGUCGGGGAAGAUGUAUUCUUCUCAUAAGAUAUAGUCGGACCUCUCCUUAAUGGGAGCUAGCGGAUGAAGUGAUGCAACACUGGAGCCGCUGGGAACUAAUUUGUAUGCGAAAGUAUAUUGAUUAGUUUUGGAGUACUCGUGGUCG
Procedure, shortened: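 Six replicate transformations of E. coli BL21(DE3) with a pET-22b(+) library were grown overnight at 37°C or 30°C. The library randomised all eight P1ex-region intron nucleotides, the intron lying in the knt kanamycin-resistance gene, and plates were LB agar with or without 25 μg/mL kanamycin plus 100 μg/mL carbenicillin, 50 μM IPTG and 0.2% rhamnose. Pooled colonies were amplicon-sequenced on an Illumina HiSeq 2500, and fitness is the DiMSum error-weighted combination of wild-type-normalised replicate fold changes, kanamycin versus none.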

| Sequence | self-splicing fitness (ln) (30 °C) | self-splicing fitness (ln) (37 °C) |
| --- | --- | --- |
| CGCCAGCAAUAUUACGUGGU | -3.15 ± 0.18 | -3.22 ± 0.26 |
| CGCCAGCAAUAUUACGUGUC | -3.34 ± 0.15 | -2.36 ± 0.14 |
| CGCCAGCAAUAUUACGUUAC | -1.91 ± 0.22 | -3.49 ± 0.31 |
| CGCGAGCAAUAUUACGACUC |  | -1.14 ± 0.31 |
| CGCGAGCAAUAUUACGAGGA | -3.16 ± 0.22 | -2.16 ± 0.18 |
| CGCGAGCAAUAUUACGCAAG | -2.92 ± 0.27 | -2.91 ± 0.43 |
| CGCGAGCAAUAUUACGCGAA | -3.88 ± 0.43 | -2.65 ± 0.23 |
| CGCGAGCAAUAUUACGGAAG | -1.78 ± 0.17 | -2.32 ± 0.2 |
| CGCGAGCAAUAUUACGGAGA | -2.25 ± 0.23 | -2.3 ± 0.33 |
| CGCGAGCAAUAUUACGGCAA | -4.21 ± 0.46 | -1.97 ± 0.28 |
| CGCGAGCAAUAUUACGUAAG | -1.78 ± 0.096 | -1.73 ± 0.12 |
| CGCGAGCAAUAUUACGUAAU | -3.36 ± 0.27 | -3.23 ± 0.4 |
| CGCGAGCAAUAUUACGUACA |  | -2.71 ± 0.43 |
| CGCGAGCAAUAUUACGUACG | -2.6 ± 0.24 | -1.5 ± 0.27 |
| CGCGAGCAAUAUUACGUACU | -3.32 ± 0.28 | -2.3 ± 0.31 |
| CGCGAGCAAUAUUACGUAGG | -2.88 ± 0.14 | -0.445 ± 0.12 |
| CGCGAGCAAUAUUACGUCCG | -2.81 ± 0.37 | 1.32 ± 0.29 |
| CGCGAGCAAUAUUACGUUAG | -3.74 ± 0.21 | -1.33 ± 0.18 |
| CGCGAGCAAUAUUACGUUGU | -3.93 ± 0.28 | -2.4 ± 0.36 |
| CGCUAGCAAUAUUACGAAAU | -3.5 ± 0.22 | -2.01 ± 0.2 |

| Sequence | self-splicing fitness (ln) (30 °C) | self-splicing fitness (ln) (37 °C) |
| --- | --- | --- |
| CGCUAGCAAUAUUACGAACU | -0.352 ± 0.12 | -0.0958 ± 0.14 |
| CGCUAGCAAUAUUACGAAUG | -1.33 ± 0.17 | -0.192 ± 0.16 |
| CGCUAGCAAUAUUACGAGAA |  | -1.99 ± 0.29 |
| CGCUAGCAAUAUUACGAGAG | -3.41 ± 0.24 | -2.81 ± 0.38 |
| CGCUAGCAAUAUUACGAGUC | -1.8 ± 0.13 | -1.01 ± 0.15 |
| CGCUAGCAAUAUUACGAUUC | -3.29 ± 0.36 | -2.12 ± 0.21 |
| CGCUAGCAAUAUUACGCAAC |  | -1.61 ± 0.49 |
| CGCUAGCAAUAUUACGCAUU | -3.69 ± 0.28 | -2.04 ± 0.27 |
| CGCUAGCAAUAUUACGCGUA | -3.45 ± 0.37 | -1.45 ± 0.15 |
| CGCUAGCAAUAUUACGCGUG | -2.8 ± 0.13 | -1.77 ± 0.12 |
| CGCUAGCAAUAUUACGCUCU | -1.58 ± 0.1 | -0.837 ± 0.099 |
| CGCUAGCAAUAUUACGGCAC | -1.9 ± 0.18 | 0.16 ± 0.19 |
| CGCUAGCAAUAUUACGGCAG | -1.29 ± 0.082 | -0.703 ± 0.15 |
| CGCUAGCAAUAUUACGGCGC | -1.1 ± 0.29 |  |
| CGCUAGCAAUAUUACGGCUA | -1.91 ± 0.31 |  |
| CGCUAGCAAUAUUACGGUCU | -1.02 ± 0.1 | -0.659 ± 0.12 |
| CGCUAGCAAUAUUACGUAUG | -1.27 ± 0.066 | -0.236 ± 0.09 |
| CGCUAGCAAUAUUACGUCAU | -3.97 ± 0.35 | -1.25 ± 0.19 |
| CGCUAGCAAUAUUACGUCCA | -1.49 ± 0.27 | -1.04 ± 0.29 |
| CGCUAGCAAUAUUACGUCCG | -0.673 ± 0.092 | -0.4 ± 0.11 |
